From publication PMC9337993

What was measured:
[1] = biological target: Cys95Ala SynZur (Synechococcus sp. WH8102); assay: native MS; native (near-native) ESI-MS, deconvoluted; WT after EDTA treatment (Zn1SynZur), Cys95Ala as purified
[2] = biological target: Cys95Ala SynZur (Synechococcus sp. WH8102); assay: SEC; analytical SEC, Superdex 200 10/300, 0.5 ml/min; Zn2SynZur 40 uM, Cys95Ala SynZur 30 uM, in 20 mM Tris-HCl pH 8, 300 mM NaCl; methods give 50 mM Tris pH 8.0, 100 mM NaCl
[3] = biological target: T1, Cys95Ala SynZur C95A (Synechococcus sp. WH8102) (UniProt Q7U3N0); assay: EMSA; settings: EMSA: 10 mM Tris pH 8, 50 mM KCl, 2 mM MgCl2, 5% glycerol, 0.05 mg/ml BSA, 1 mM DTT, 3 mM spermidine, 5 ng DNA in 10 ul, room temperature 30 min, gel at 4 C …
T1 sequence: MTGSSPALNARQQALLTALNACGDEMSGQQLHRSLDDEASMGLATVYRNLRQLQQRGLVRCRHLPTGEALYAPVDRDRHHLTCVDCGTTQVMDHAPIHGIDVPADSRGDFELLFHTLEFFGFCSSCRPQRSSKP

[4] = biological target: SynZur (SYNW2401), zinc uptake regulator Zur from Synechococcus sp. WH8102 (Synechococcus sp. WH8102); assay: nondenaturing SDS-PAGE; 10% Tris-glycine gel, 50 mM Tris pH 7.3, 50 mM MOPS, 0.0375% SDS, 4 °C, 100 V
[5] = biological target: SynZur (SYNW2401), zinc uptake regulator Zur from Synechococcus sp. WH8102 (Synechococcus sp. WH8102); assay: native MS; native (near-native) ESI-MS, deconvoluted; WT after EDTA treatment (Zn1SynZur), Cys95Ala as purified
[6] = biological target: SynZur (SYNW2401), zinc uptake regulator Zur from Synechococcus sp. WH8102 (Synechococcus sp. WH8102); assay: dynamic light scattering; 20 uM protein in 50 mM Tris, 25 °C; hydrodynamic diameter compared with values calculated for monomers, dimers and tetramers
[7] = biological target: SynZur (SYNW2401), zinc uptake regulator Zur from Synechococcus sp. WH8102 (Synechococcus sp. WH8102); assay: crystal structure; X-ray, 2.1 Å, space group P65, four molecules (two dimers) in the asymmetric unit; 100 mM magnesium acetate, 100 mM MES pH 6, 16% PEG 10000, 4 °C

In the case of Cys95Ala SynZur (natural protein), the stoichiometry N [1] is reported as 2 and the stoichiometry N [2] is reported as 2.

For “GTTCCATCCACAGCCACAACGCTTGGCTGGGCCGCCTGCGCCGCGACTGAACAACCCGAGACAACGCCCAGGGCGACCGCCAGACCCTTGACCAAAAGCGCAGGACGCGCCATGACACTCGAATGAGAATGATTATCATTTTTACAGTTCAACGGGTTGGCGCAACCCAATCGCGACCGCATGATGAAGTGAACCCACCGCAGCTGTGACAGAACCGCATTCGTCCATCAAGGGGCATCTAGCAGCCAGGAATCTC (double strand) [PznuA promoter (znuC-znuA intergenic fragment)]”, the binding [3] was “no binding”.

“SynZur (SYNW2401), zinc uptake regulator Zur from Synechococcus sp. WH8102 (natural protein)” showed a stoichiometry N [4] of 2, a stoichiometry N [5] of 2 and a stoichiometry N [6] of 2. For the same substance, the stoichiometry N [7] was 2.
